According to patent US20050084491A1:

Molecular target: surface integrins on A375.S2 cells (human melanoma cells)
Experiment: flow cytometry on A375.S2 cells, CNTO95 10 ug/ml, no peptide (cells only: 3.36)

- Mean Channel Fluorescence: 89.7
Substance: CNTO95 (antibody)
